# According to patent publication US10696631B2 (priority 2016, dated 2020):
# Read-outs that look alike come from different tables or passages of the source.
# Experiments:
# [1] = test system: U87MG xenografts; assay: MicroPET imaging and biodistribution in U87MG xenografts
# Excerpt: (§1) Female athymic nude mice (Harlan Laboratories) were housed in an animal facility under pathogen-free conditions. Tumor model was developed in 5 to 6 weeks old female athymic nude mice by injection of 5×10^6 cells into their right shoulders. The mice underwent small-animal PET studies when the tumor volume reached 300 mm^3 (14-20 days after inoculation), and received ^90Y radionuclide therapy when the tumor volume reached 150 mm^3 (10-14 days after inoculation).
# (§2) Blood, muscle, bone, liver, kidneys, spleen, intestine, heart and tumor were collected and wet-weighed. […] Radioactivity was measured in a γ-counter. The results were expressed % ID/g.
# [2] = test system: glioblastoma; details: human, in vivo
# [3] = mouse
# Method: The red blood cells were separated from the plasma using centrifugation (3500 rpm for 5 min). […] The extracted soup was taken, filter on 0.45 μm filter and injected into an analytical HPLC using system 1.
# [4] = test system: HT29 xenografts; details: mouse, in vivo
# Excerpt: as §1, §2
# [5] = test system: MDA-MB-435 xenografts; details: mouse, in vivo
# Excerpt: as §1, §2
# [6] = PET/CT and dosimetry calculation in healthy volunteers
# [7] = test system: glioblastoma; assay: PET in a patient with WHO stage IV glioblastoma; details: GBM patient
# [8] = human, in vivo
# [9] = test system: HT29 cells; assay: Cellular uptake and internalization in HT29 cells; type: cell-based, human
# Method: (§3) All the cells were supplemented with 10% fetal bovine serum, 100 IU/mL penicillin, and […] streptomycin. Cells were grown in humidified atmosphere containing 5% CO2 at 37° C.
# [10] = test system: U87MG cells
# Method: as §3
# [11] = type: in vitro ADME, mouse
# Excerpt: At each time point, an aliquot was taken and loaded on iTLC plate and developed in for RadioTLC measurements.
# [12] = test system: U87MG tumor; assay: 18F-FDG and 18F-FLT PET imaging after 90Y radiotherapy; type: in vivo, mouse
# [13] = test system: U87MG tumor; assay: 90Y radiotherapy in U87MG tumor bearing mice; type: in vivo, mouse
# Excerpt: NMEB-RGD was applied to integrin αvβ3 targeted radiotherapy. […] Similar pattern was observed after the second injection.
# [14] = test system: HT29 tumor; type: in vivo, mouse; details: HT-29 tumor xenografts, 7.4 MBq
# Method: In order to test the specificity of ^90Y-DMEB-RGD radiotherapy to integrin αvβ3, the efficacy of 7.4 MBq ^90Y-DMEB-RGD in HT29 that expresses lower human integrin levels but has moderate expression of mouse integrin was tested (FIG. 6). […] Injection of HT29 tumor bearing mice with 7.4 MBq ^90Y-DMEB-RGD was compared in the same model to injection of saline (FIG. 18A). […] HT-29 treated and non-treated mice were sacrificed at day 26 post injection due to tumors ulcer.
# [15] = test system: U87MG tumor; assay: Histopathologic staining after targeted radiotherapy (CD31, Ki-67, TUNEL, H&E); type: in vivo, mouse
# Method: U87MG tumor samples from Groups A-F were collected and sectioned after the animals were sacrificed. […] After being washed three times with PBS, samples were mounted with DAPI for staining of cell nuclei (Vector). Fluorescence images were acquired with an epifluorescence microscope (200×; Olympus, X81).
# Immunofluorescent terminal deoxynucleotidetransferase-mediated biotin-dUTP labeling (TUNEL) analysis was done by use of a commercial available kit (Roche Applied Science). According to the manufacture's specifications, samples were fixed with 10% formalin and permeabilized by incubation with 0.1% Triton for 2 min on ice. After fixation and permeabilization, 50 μL of TUNEL reaction mixture were added on the samples. The slides were then incubated in a humidified atmosphere for 60 min at 37° C. in the dark. After rinsing with PBS and mounting with DAPI (Vector), samples were observed under an epifluorescence microscope using GFP channel.
# CD31 staining to evaluate tumor vasculature, Ki-67 staining to evaluate tumor proliferation and TUNEL staining to determine the DNA damage were done for all the six groups (A-F). For groups A, E and F that had large necrotic area, staining was focused on the tumor rim where tumor cells were alive.
# [16] = human, intravenous administration, n = 3
structure (smiles),measurement,setting,value
Cc1cc(-c2ccc(NC(=O)CN3CCN4CCN(CC3)CC(=O)[O][64Cu][O]C(=O)C4)c(C)c2)ccc1N=Nc1ccc2c(S(=O)(=O)O)cc(S(=O)(=O)O)c(N)c2c1O [64Cu-NEB],tumor uptake,"[1]; U87MG xenografts, 24 h p.i., PET",approximately 8 % ID/g
same,uptake in the tumor,"[1]; U87MG xenografts, up to 4 h p.i.",6-7 % ID/g
same,order of tumor uptake among xenografts,"[1]; U87MG, HT29 and MDA-MB-435 xenografts",U87MG>HT29>MDA-MB-435
same,accumulation in the blood compared with the other tracers,[1]; all time points,highest accumulation in the blood at all time points
"Cc1cc(-c2ccc(NC(=O)[C@@H](CCCCNC(=O)CCN3C(=O)CC(SCC(=O)NCCCC[C@H]4NC(=O)[C@H](Cc5ccccc5)NC(=O)[C@H](CC(=O)O)NC(=O)CNC(=O)[C@H](CCCNC(=N)N)NC4=O)C3=O)NC(=O)CN3CCN(CC(=O)O)CCN(CC(=O)O)CC3)c(C)c2)ccc1/N=N/c1ccc2c(S(=O)(=O)O)cc(S(=O)(=O)O)c(N)c2c1O (some centres unmarked) [64Cu-NMEB-RGD, metal not drawn]","T(max/N), tumor/non-tumor ratio",[2],73.4
same,stability in the blood in vivo,[3],stable up to 4 h in the blood
same,radioactivity extraction bound to the blood proteins fraction,[3]; in vivo,Over 90%
same,tumor uptake compared with U87MG,[4],significantly lower than U87MG at all time points
same,tumor uptake compared with U87MG,[5],significantly lower than U87MG at all time points
same,effective dose,[6]; healthy volunteers,0.1166 Rem/mCi
same,"Effective Dose Equivalent, Mean",[6]; [16],0.0454 mSv/MBq
same,"Effective Dose, Mean",[6]; [16],0.0315 mSv/MBq
same,"Estimated absorbed dose, Kidneys, Mean",[6]; [16],0.0994 mSv/MBq
same,exposure,[6]; subject injected with 8 mCi,0.933 Rem
same,"tumor accumulation, % ID/g max","[1]; U87MG xenografts, 4 and 24 h p.i.",27-30 % ID/g
same,tumor uptake (max) higher than uptake of 64Cu-NOTA-c(RGDfk),"[1]; mouse, in vivo",15 times
same,tumor uptake blocked by,"[1]; mouse, in vivo",55-65%
same,"T(max/N), tumor/non-tumor ratio",[7]; 0.5 h,8.36
same,"T(mean/N), tumor/non-tumor ratio",[7]; 0.5 h,4.13
same,Tumor-SUVmax,[7]; 0.5 h,1.84
same,Tumor-SUVmean,[7]; 0.5 h,0.91
same,"T(max/N), tumor/non-tumor ratio",[7]; 1 h,9.78
same,"T(mean/N), tumor/non-tumor ratio",[7]; 1 h,4.96
same,Tumor-SUVmax,[7]; 1 h,2.74
same,Tumor-SUVmean,[7]; 1 h,1.39
same,"T(max/N), tumor/non-tumor ratio",[7]; 8 h,25.35
same,"T(mean/N), tumor/non-tumor ratio",[7]; 8 h,13.05
same,Tumor-SUVmax,[7]; 8 h,5.07
same,Tumor-SUVmean,[7]; 8 h,2.61
same,"T(max/N), tumor/non-tumor ratio",[7]; 12 h,32.89
same,"T(mean/N), tumor/non-tumor ratio",[7]; 12 h,17.21
same,Tumor-SUVmax,[7]; 12 h,6.25
same,Tumor-SUVmean,[7]; 12 h,3.27
same,"T(max/N), tumor/non-tumor ratio",[7]; 20 h,63.33
same,"T(mean/N), tumor/non-tumor ratio",[7]; 20 h,34.5
same,Tumor-SUVmax,[7]; 20 h,3.8
same,Tumor-SUVmean,[7]; 20 h,2.07
same,"T(max/N), tumor/non-tumor ratio",[7]; 20.5 h,66.16
same,"T(mean/N), tumor/non-tumor ratio",[7]; 20.5 h,34.5
same,Tumor-SUVmax,[7]; 20.5 h,3.97
same,Tumor-SUVmean,[7]; 20.5 h,2.07
same,"T(mean/N), tumor/non-tumor ratio",[7]; 24 h,40.2
same,Tumor-SUVmax,[7]; 24 h,3.67
same,Tumor-SUVmean,[7]; 24 h,2.01
same,accumulation in normal organs,[8],no undesired accumulation in normal organs
same,"Estimated absorbed dose, Adrenals, Mean",[8]; iv,0.0319 mSv/MBq
same,"Estimated absorbed dose, Brain, Mean",[8]; iv,0.0077 mSv/MBq
same,"Estimated absorbed dose, Breasts, Mean",[8]; iv,0.0241 mSv/MBq
same,"Estimated absorbed dose, Gallbladder Wall, Mean",[8]; iv,0.0346 mSv/MBq
same,"Estimated absorbed dose, Heart Wall, Mean",[8]; iv,0.0298 mSv/MBq
same,"Estimated absorbed dose, Liver, Mean",[8]; iv,0.1012 mSv/MBq
same,"Estimated absorbed dose, Lower Large Intestine Wall, Mean",[8]; iv,0.0291 mSv/MBq
same,"Estimated absorbed dose, Lungs, Mean",[8]; iv,0.0200 mSv/MBq
same,"Estimated absorbed dose, Muscle, Mean",[8]; iv,0.0127 mSv/MBq
same,"Estimated absorbed dose, Osteogenic Cells, Mean",[8]; iv,0.0528 mSv/MBq
same,"Estimated absorbed dose, Ovaries, Mean",[8]; iv,0.0294 mSv/MBq
same,"Estimated absorbed dose, Pancreas, Mean",[8]; iv,0.0647 mSv/MBq
same,"Estimated absorbed dose, Red Marrow, Mean",[8]; iv,0.0230 mSv/MBq
same,"Estimated absorbed dose, Skin, Mean",[8]; iv,0.0219 mSv/MBq
same,"Estimated absorbed dose, Small Intestine, Mean",[8]; iv,0.0545 mSv/MBq
same,"Estimated absorbed dose, Spleen, Mean",[8]; iv,0.1293 mSv/MBq
same,"Estimated absorbed dose, Stomach Wall, Mean",[8]; iv,0.0301 mSv/MBq
same,"Estimated absorbed dose, Testes, Mean",[8]; iv,0.0229 mSv/MBq
same,"Estimated absorbed dose, Thymus, Mean",[8]; iv,0.0261 mSv/MBq
same,"Estimated absorbed dose, Thyroid, Mean",[8]; iv,0.0248 mSv/MBq
same,"Estimated absorbed dose, Total Body, Mean",[8]; iv,0.0299 mSv/MBq
same,"Estimated absorbed dose, Upper Large Intestine Wall, Mean",[8]; iv,0.0317 mSv/MBq
same,"Estimated absorbed dose, Urinary Bladder Wall, Mean",[8]; iv,0.0268 mSv/MBq
same,"Estimated absorbed dose, Uterus, Mean",[8]; iv,0.0334 mSv/MBq
same,cell uptake,[9],0.76±0.03%
same,cell uptake,"[10]; U87MG cells, 4 h",1.86±0.22 % of total input
same,"cell uptake, effect of albumin in the medium",[10]; all time points,significantly higher in the absence of albumin in the medium
same,internalization,[10]; time points later than 5 min,most of ^64Cu-NMEB-RGD uptake was internalized
same,stability in mouse serum (de-metalation),[11],stable in mouse serum for up to 24 h
"Cc1cc(-c2ccc(NC(=O)[C@@H](CCCCNC(=O)CCN3C(=O)CC(SCC(=O)NCCCC[C@H]4NC(=O)[C@H](Cc5ccccc5)NC(=O)[C@H](CC(=O)O)NC(=O)CNC(=O)[C@H](CCCNC(=N)N)NC4=O)C3=O)NC(=O)CN3CCN(CC(=O)O)CCN(CC(=O)O)CCN(CC(=O)O)CC3)c(C)c2)ccc1/N=N/c1ccc2c(S(=O)(=O)O)cc(S(=O)(=O)O)c(N)c2c1O (some centres unmarked) [90Y-DMEB-RGD, metal not drawn]","18F-FLT PET, tumor proliferation","[12]; 5 and 12 days post initial treatment, group B 7.4 MBq",significant less 18F-FLT uptake
same,"18F-FDG PET, tumor metabolism",[12]; 3 days post-injection,decreased metabolism
same,"18F-FDG PET, tumor metabolism","[12]; 10 days post-treatment, group B 7.4 MBq",significant decreased metabolism
same,tumor volume,"[13]; 1.75 MBq, second injection",No effect on the tumor volume
same,tumor volume,"[13]; 3.7 MBq, second injection",Minor tumor shrink
same,survival compared with saline and 90Y-DOTA-c(RGDfK) groups,"[13]; 7.4, 3.7 and 1.75 MBq groups",significant differences (p<0.01)
same,tumor volume compared with saline group,"[13]; 7.4, 3.7 and 1.75 MBq groups, day 6 post treatment",significantly lower (p<0.01)
same,body weight loss,"[13]; 7.4 MBq, day 2, regained at day 4",5%
same,tumor volume,"[13]; 7.4 MBq, first injection",reduction of volume by day 8
same,tumor volume,"[13]; 7.4 MBq, second injection 14 days post initial treatment",tumors almost disappeared up to 30 days post initial treatment
same,tumor growth,[14],delay of tumor growth
same,cell apoptosis (TUNEL staining),[15]; group B 7.4 MBq,considerably more cell apoptosis
same,cell proliferation (Ki-67 staining),[15]; group B 7.4 MBq,significantly reduced cell proliferation
same,tumor vasculature (CD31 staining),[15]; group B 7.4 MBq,lesser than that in the other groups
same,"Hematoxylin and eosin staining, tumor necrosis","[15]; group B, two doses of 7.4 MBq",most of the tumor area in Group B was already necrotic
